# Experiments:
# [1] = biological target: RAGE ligand (not named in the glycoform binding study); experiment: binding assay of RP-HPLC glycoform fractions; reference is the 3-glycan fraction; method and ligand not stated; data not shown
# [2] = biological target: RAGE ligand (not named in the glycoform binding study); experiment: binding assay of RP-HPLC glycoform fractions; method and ligand not stated; data not shown
# [3] = biological target: RAGE ligand (not named in the glycoform binding study); experiment: binding assay of RP-HPLC glycoform fractions; method and ligand not stated; reference sample; data not shown
fold increase in binding against the 3 glycan fraction [1] [fold],relative binding (percent of control RAGE fusion protein) [2] [%],relative binding [3] [%],Substance
10,529,,0-glycan RAGE fusion protein (RP-HPLC fraction of wild-type RAGE fusion protein) (Fc fusion)
,,100,control RAGE fusion protein (mixture of 67% 3-glycan and 22% 2 glycan RAGE fusion protein) (Fc fusion)

# Source: patent publication US20130142792A1
